From patent US7033590 (BAXTER AKTIENGESELLSCHAFT, dated 2006) come the findings set out here.

Non-standard residues stand in square brackets, D forms with d. No end group written: not given here.

Test [1] concerns the target T1, human activated factor IX (human FIXa) (human, UniProt P00740 47-191; P00740 227-461). Description: cell-based or functional assay.
For test [2], the target named is T2, human coagulation factor (F) IX (human, UniProt P00740 47-461).
T2 construct: also called Factor IX; factor IX
T2 sequence (P00740 47-461 limits assumed): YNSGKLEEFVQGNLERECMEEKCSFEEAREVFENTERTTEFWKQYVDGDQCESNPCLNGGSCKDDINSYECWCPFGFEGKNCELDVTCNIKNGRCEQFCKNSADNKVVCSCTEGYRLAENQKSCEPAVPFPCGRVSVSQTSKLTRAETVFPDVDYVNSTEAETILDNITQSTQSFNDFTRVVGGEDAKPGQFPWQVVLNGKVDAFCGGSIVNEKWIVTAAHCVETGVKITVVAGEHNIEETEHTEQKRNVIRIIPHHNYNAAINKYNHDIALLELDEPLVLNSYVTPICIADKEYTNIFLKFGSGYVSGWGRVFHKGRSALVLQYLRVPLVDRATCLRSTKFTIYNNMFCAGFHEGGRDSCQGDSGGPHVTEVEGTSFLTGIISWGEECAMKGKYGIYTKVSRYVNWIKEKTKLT
Description: Western blot and ELISA. (In general: A western blot detects proteins with antibodies after separation by electrophoresis.)

Test [3] addresses T1, human activated factor IX (human FIXa). Description: cell-based or functional assay. The source holds these as a separate data set.
Test [4] has the same target. The experiment in a line: cell-based or functional assay. The source holds these as a separate data set.

Take unspecific mouse IgG (antibody): in test [1], the clotting time, aPTT one-stage assay, FVIII deficient plasma, 50 ng FIXa, 0.23 µg antibody amounted to 104 s; the clotting time, aPTT one-stage assay, FVIII deficient plasma, 50 ng FIXa, 0.34 µg antibody is 104 s; the clotting time, aPTT one-stage assay, FVIII deficient plasma, 50 ng FIXa, 0.45 µg antibody amounted to 102 s; the clotting time, aPTT one-stage assay, FVIII deficient plasma, 50 ng FIXa, 0.9 µg antibody came to 102 s. Further, in test [1], the clotting time, aPTT one-stage assay, FVIII deficient plasma, 50 ng FIXa, 1.35 µg antibody worked out at 103 s; the clotting time, aPTT one-stage assay, FVIII deficient plasma, 50 ng FIXa, 1.8 µg antibody was found to be 102 s; the clotting time, aPTT one-stage assay, FVIII deficient plasma, 50 ng FIXa, 2.25 µg antibody stood at 103 s; the clotting time, aPTT one-stage assay, FVIII deficient plasma, 50 ng FIXa, 4.5 µg antibody was 103 s. In test [1], this molecule gave a clotting time, aPTT one-stage assay, FVIII deficient plasma, 50 ng FIXa, 9 µg antibody of 102 s.

In test [1], “Factor VIII (from UniProt P00451 20-2351)” showed a clotting time, aPTT one-stage (Pathromtin SL), FVIII deficient plasma, 2.2 nM human FIXa, FVIII 6.25 mU/ml, average (IZ buffer 108) of 59 s; a clotting time, aPTT one-stage (Pathromtin SL), FVIII deficient plasma, 2.2 nM human FIXa, FVIII 6.25 mU/ml, duplicate 1 (IZ buffer 107.9) of 58.6 s; a clotting time, aPTT one-stage (Pathromtin SL), FVIII deficient plasma, 2.2 nM human FIXa, FVIII 6.25 mU/ml, duplicate 2 (IZ buffer 108.7) of 58.9 s; a clotting time, aPTT one-stage (Pathromtin SL), FVIII deficient plasma, 2.2 nM human FIXa, FVIII 12.5 mU/ml, average (IZ buffer 108) of 53 s. Further, in test [1], the clotting time, aPTT one-stage (Pathromtin SL), FVIII deficient plasma, 2.2 nM human FIXa, FVIII 12.5 mU/ml, duplicate 1 (IZ buffer 107.9) turned out to be 52.9 s and the clotting time, aPTT one-stage (Pathromtin SL), FVIII deficient plasma, 2.2 nM human FIXa, FVIII 12.5 mU/ml, duplicate 2 (IZ buffer 108.7) is 53.6 s.

B1: irrelevant monoclonal antibody #8860 (antibody, V domains shown)
VH: EVQLQQSGPELVKPGASVKISCKASGYAFSSSWMNWVKQRPGQGLEWIGRIYPGNGDTNYNGKFKGKATLTADKSSSTAYMQLSSLTSVDSAVYFCADGNVYYYAMDYWGQGTSVTVSS
VL: QIVLTQSPASLAVSLGQRATISCRASKSVSTSGYSYMHWYQQKPGQPPKLLIYLASNLESGVPARFSGSGSGTDFTLNIHPVEEEDAATYYCQHSRELPRTFGGGTKLEIKR
notes: Tested as the monoclonal antibody
As for B1, the binding result in test [2] is “no binding”.

Take RRREGGGYYVNWYFDRRR [peptide A1/3]: in test [3], the “clotting time, aPTT one-stage assay (Table 4), 2.2 nM FIXa, peptide 1.25 µM, average (IZ buffer 96)” value worked out at 95 s; the “clotting time, aPTT one-stage assay (Table 4), 2.2 nM FIXa, peptide 1.25 µM, duplicate 1 (IZ buffer 96)” value was found to be 94.4 s; the “clotting time, aPTT one-stage assay (Table 4), 2.2 nM FIXa, peptide 1.25 µM, duplicate 2 (IZ buffer 96)” value stood at 95 s; the “clotting time, aPTT one-stage assay (Table 4), 2.2 nM FIXa, peptide 2.5 µM, average (IZ buffer 96)” value was 93 s. Besides, in test [3], the “clotting time, aPTT one-stage assay (Table 4), 2.2 nM FIXa, peptide 2.5 µM, duplicate 1 (IZ buffer 96)” value came to 93.6 s; the “clotting time, aPTT one-stage assay (Table 4), 2.2 nM FIXa, peptide 2.5 µM, duplicate 2 (IZ buffer 96)” value came out at 93.3 s; the “clotting time, aPTT one-stage assay (Table 4), 2.2 nM FIXa, peptide 5 µM, average (IZ buffer 96)” value was found to be 89 s; the “clotting time, aPTT one-stage assay (Table 4), 2.2 nM FIXa, peptide 5 µM, duplicate 1 (IZ buffer 96)” value is 89.7 s. In addition, in test [3], the “clotting time, aPTT one-stage assay (Table 4), 2.2 nM FIXa, peptide 5 µM, duplicate 2 (IZ buffer 96)” value stood at 88.3 s; the “clotting time, aPTT one-stage assay (Table 4), 2.2 nM FIXa, peptide 7.5 µM, average (IZ buffer 96)” value was found to be 81 s; the “clotting time, aPTT one-stage assay (Table 4), 2.2 nM FIXa, peptide 7.5 µM, duplicate 1 (IZ buffer 96)” value was 80.7 s; the “clotting time, aPTT one-stage assay (Table 4), 2.2 nM FIXa, peptide 7.5 µM, duplicate 2 (IZ buffer 96)” value came out at 80.5 s. Further, in test [3], the “clotting time, aPTT one-stage assay (Table 4), 2.2 nM FIXa, peptide 10 µM, average (IZ buffer 96)” value is 73 s; the “clotting time, aPTT one-stage assay (Table 4), 2.2 nM FIXa, peptide 10 µM, duplicate 1 (IZ buffer 96)” value came out at 72 s; the “clotting time, aPTT one-stage assay (Table 4), 2.2 nM FIXa, peptide 10 µM, duplicate 2 (IZ buffer 96)” value came out at 73.2 s; the “clotting time, aPTT one-stage assay (Table 4), 2.2 nM FIXa, peptide 12.5 µM, average (IZ buffer 96)” value was 67 s. For the same molecule, in test [3], the “clotting time, aPTT one-stage assay (Table 4), 2.2 nM FIXa, peptide 12.5 µM, duplicate 1 (IZ buffer 96)” value amounted to 65 s; the “clotting time, aPTT one-stage assay (Table 4), 2.2 nM FIXa, peptide 12.5 µM, duplicate 2 (IZ buffer 96)” value came out at 68 s; the “clotting time, aPTT one-stage assay (Table 4), 2.2 nM FIXa, peptide 15 µM, average (IZ buffer 96)” value is 56 s; the “clotting time, aPTT one-stage assay (Table 4), 2.2 nM FIXa, peptide 15 µM, duplicate 1 (IZ buffer 96)” value came out at 56.1 s. Also, the “clotting time, aPTT one-stage assay (Table 4), 2.2 nM FIXa, peptide 15 µM, duplicate 2 (IZ buffer 96)” value in test [3] is 55.5 s.

On to [dR][dR][dR]EGGGYYVNWYFD[dR][dR][dR] [peptide A1/3-Rd], for which, in test [3], the “clotting time, aPTT one-stage assay (Table 4), 2.2 nM FIXa, peptide 1.25 µM, average (IZ buffer 96)” value is 96 s; the “clotting time, aPTT one-stage assay (Table 4), 2.2 nM FIXa, peptide 1.25 µM, duplicate 1 (IZ buffer 96)” value amounted to 96.6 s; the “clotting time, aPTT one-stage assay (Table 4), 2.2 nM FIXa, peptide 1.25 µM, duplicate 2 (IZ buffer 96)” value amounted to 96 s; the “clotting time, aPTT one-stage assay (Table 4), 2.2 nM FIXa, peptide 2.5 µM, average (IZ buffer 96)” value is 95 s. Moreover, in test [3], the “clotting time, aPTT one-stage assay (Table 4), 2.2 nM FIXa, peptide 2.5 µM, duplicate 1 (IZ buffer 96)” value came to 94.4 s; the “clotting time, aPTT one-stage assay (Table 4), 2.2 nM FIXa, peptide 2.5 µM, duplicate 2 (IZ buffer 96)” value is 94.7 s; the “clotting time, aPTT one-stage assay (Table 4), 2.2 nM FIXa, peptide 5 µM, average (IZ buffer 96)” value stood at 86 s; the “clotting time, aPTT one-stage assay (Table 4), 2.2 nM FIXa, peptide 5 µM, duplicate 1 (IZ buffer 96)” value came out at 86 s. In addition, in test [3], the “clotting time, aPTT one-stage assay (Table 4), 2.2 nM FIXa, peptide 5 µM, duplicate 2 (IZ buffer 96)” value amounted to 85.1 s; the “clotting time, aPTT one-stage assay (Table 4), 2.2 nM FIXa, peptide 7.5 µM, average (IZ buffer 96)” value was found to be 82 s; the “clotting time, aPTT one-stage assay (Table 4), 2.2 nM FIXa, peptide 7.5 µM, duplicate 1 (IZ buffer 96)” value came out at 80.9 s; the “clotting time, aPTT one-stage assay (Table 4), 2.2 nM FIXa, peptide 7.5 µM, duplicate 2 (IZ buffer 96)” value is 82.2 s. In addition, in test [3], the “clotting time, aPTT one-stage assay (Table 4), 2.2 nM FIXa, peptide 10 µM, average (IZ buffer 96)” value amounted to 76 s; the “clotting time, aPTT one-stage assay (Table 4), 2.2 nM FIXa, peptide 10 µM, duplicate 1 (IZ buffer 96)” value was determined as 74.2 s; the “clotting time, aPTT one-stage assay (Table 4), 2.2 nM FIXa, peptide 10 µM, duplicate 2 (IZ buffer 96)” value is 77.2 s; the “clotting time, aPTT one-stage assay (Table 4), 2.2 nM FIXa, peptide 12.5 µM, average (IZ buffer 96)” value was found to be 73 s. For the same molecule, in test [3], the “clotting time, aPTT one-stage assay (Table 4), 2.2 nM FIXa, peptide 12.5 µM, duplicate 1 (IZ buffer 96)” value turned out to be 72.3 s; the “clotting time, aPTT one-stage assay (Table 4), 2.2 nM FIXa, peptide 12.5 µM, duplicate 2 (IZ buffer 96)” value amounted to 73.7 s; the “clotting time, aPTT one-stage assay (Table 4), 2.2 nM FIXa, peptide 15 µM, average (IZ buffer 96)” value is 75 s; the “clotting time, aPTT one-stage assay (Table 4), 2.2 nM FIXa, peptide 15 µM, duplicate 1 (IZ buffer 96)” value was determined as 76.1 s. The “clotting time, aPTT one-stage assay (Table 4), 2.2 nM FIXa, peptide 15 µM, duplicate 2 (IZ buffer 96)” value in test [3] turned out to be 74.4 s.

For the molecule [dR][dR][dR]GEYGVYWNGDFY[dR][dR][dR] [peptide A1/3-Rd-srmb], in test [3], the “clotting time, aPTT one-stage assay (Table 4), 2.2 nM FIXa, peptide 1.25 µM, average (IZ buffer 96)” value is 103 s; the “clotting time, aPTT one-stage assay (Table 4), 2.2 nM FIXa, peptide 1.25 µM, duplicate 1 (IZ buffer 96)” value amounted to 101 s; the “clotting time, aPTT one-stage assay (Table 4), 2.2 nM FIXa, peptide 1.25 µM, duplicate 2 (IZ buffer 96)” value stood at 105 s; the “clotting time, aPTT one-stage assay (Table 4), 2.2 nM FIXa, peptide 2.5 µM, average (IZ buffer 96)” value was 105 s. In addition, in test [3], the “clotting time, aPTT one-stage assay (Table 4), 2.2 nM FIXa, peptide 2.5 µM, duplicate 1 (IZ buffer 96)” value was determined as 105 s; the “clotting time, aPTT one-stage assay (Table 4), 2.2 nM FIXa, peptide 2.5 µM, duplicate 2 (IZ buffer 96)” value is 104 s; the “clotting time, aPTT one-stage assay (Table 4), 2.2 nM FIXa, peptide 5 µM, average (IZ buffer 96)” value was found to be 108 s; the “clotting time, aPTT one-stage assay (Table 4), 2.2 nM FIXa, peptide 5 µM, duplicate 1 (IZ buffer 96)” value is 108 s. In test [3], the “clotting time, aPTT one-stage assay (Table 4), 2.2 nM FIXa, peptide 5 µM, duplicate 2 (IZ buffer 96)” value came out at 108 s; the “clotting time, aPTT one-stage assay (Table 4), 2.2 nM FIXa, peptide 7.5 µM, average (IZ buffer 96)” value worked out at 107 s; the “clotting time, aPTT one-stage assay (Table 4), 2.2 nM FIXa, peptide 7.5 µM, duplicate 1 (IZ buffer 96)” value came out at 108 s; the “clotting time, aPTT one-stage assay (Table 4), 2.2 nM FIXa, peptide 7.5 µM, duplicate 2 (IZ buffer 96)” value stood at 107 s. In test [3], the “clotting time, aPTT one-stage assay (Table 4), 2.2 nM FIXa, peptide 10 µM, average (IZ buffer 96)” value amounted to 108 s; the “clotting time, aPTT one-stage assay (Table 4), 2.2 nM FIXa, peptide 10 µM, duplicate 1 (IZ buffer 96)” value came out at 107 s; the “clotting time, aPTT one-stage assay (Table 4), 2.2 nM FIXa, peptide 10 µM, duplicate 2 (IZ buffer 96)” value was 108 s; the “clotting time, aPTT one-stage assay (Table 4), 2.2 nM FIXa, peptide 12.5 µM, average (IZ buffer 96)” value worked out at 108 s. Moreover, in test [3], the “clotting time, aPTT one-stage assay (Table 4), 2.2 nM FIXa, peptide 12.5 µM, duplicate 1 (IZ buffer 96)” value worked out at 108 s; the “clotting time, aPTT one-stage assay (Table 4), 2.2 nM FIXa, peptide 12.5 µM, duplicate 2 (IZ buffer 96)” value worked out at 108 s; the “clotting time, aPTT one-stage assay (Table 4), 2.2 nM FIXa, peptide 15 µM, average (IZ buffer 96)” value was determined as 113 s; the “clotting time, aPTT one-stage assay (Table 4), 2.2 nM FIXa, peptide 15 µM, duplicate 1 (IZ buffer 96)” value came out at 113 s. For the same molecule, the “clotting time, aPTT one-stage assay (Table 4), 2.2 nM FIXa, peptide 15 µM, duplicate 2 (IZ buffer 96)” value in test [3] was 112 s.

B2: monoclonal antibody 198/B1 (antibody, V domains shown)
VH: EVQLQESGGGLVKPGGSLKLSCAASGFTFSSYTMSWVRQTPEKRLEWVATISSGGSSTYYPDSVKGRFTISRDNAKNTLYLQMSSLRSEDTAMYYCTREGGGFTVNWYFDVWGAGTLVTVSA
VL: ENVLTQSPASLAVSLGQRATISCRASESVDSYGYNFMHWYQQIPGQPPKLLIYRASNLESGIPARFSGSGSRTDFTLTINPVEADDVATYYCQQSNEDPLTFGTGTRLEIKR
On to B2, for which the “amidolytic activity of FIXa (cleavage of CH3SO2-D-CHG-Gly-Arg-pNA, OD405), 20 mU FIXa (Stago), various amounts of antibody” value in test [4] was not below 2 fold.
